This is an account of results in patent publication US20030180295A1, “Angiocidin: a Cys-Ser-Val-Thr-Cys-Gly specific tumor cell adhesion receptor” (Philadelphia Health and Education Corporation, priority 1999, published 2003).

Test [1] has as its system Bovine aortic endothelial cells (BAEC). The experiment in a line: ALAMAR BLUE cell viability assay. Type of test: cell-based. The method, then:
Bovine aortic endothelial cells (BAEC), human umbilical vein endothelial cells (HUVEC), fibroblast cells, A549 human lung carcinoma cells (A549), MDA-MB231 human breast carcinoma cells (MB231), MCF7 human breast carcinoma cells (MCF7) were treated with 37 μg/ml of receptor, or buffer alone, for 24 hours. Viability of the cells was measured using the ALAMAR BLUE™ assay, which measures the capacity of cells to metabolize the ALAMAR BLUE™ dye. The ALAMAR BLUE™ assay (available from Biosource International, Camarillo, Calif.) quantitatively measures the proliferation of cell lines and can establish the relative cytotoxicity of chemical agents. […] Data can be collected using either fluorescence-based instrumentation (530-560 nm excitation wavelength and 590 nm emission wavelength) or absorbance-based instrumentation (570 nm and 600 nm).
BAEC and BSM cells were treated with increasing concentrations of angiocidin (0, 0.625, 1.25, 2.5, 5, 15, 26 and 37 μg/ml) for 24 hours. Cell viability was measured using the ALAMAR BLUE Tm assay. […]
Bovine aortic endothelial cells (BAEC) were cultured overnight in serum-free media containing either 37 μg/ml his-tagged angiocidin or his-tagged GST. […] Viability was measured by the ALAMAR BLUE™ assay. […]
The endothelial cells (BAEC) were incubated overnight 37 μg/ml of the angiocidin, fragments, and GST. Viability was measured using the ALAMAR BLUE™ assay.
(In general: Alamar Blue is a resazurin reagent that responds to reducing activity.)

Test [2] has as its target TSP-1 (Homo sapiens, UniProt P07996). As to the kind of experiment: Optical binding of angiocidin fragments to TSP-1 derivatized cuvette. Conditions: test proteins at 10 nm in PBS buffer. The method, then: This study examines the amino terminal (Met1-Lys132) and carboxy terminal (IIe248-Lys380) portions of angiocidin (SEQ ID NOS: 24 and 25, respectively). The binding of undenatured recombinant angiocidin fragments was compared to full length angiocidin. GST was used as a negative control. Binding was evaluated using an optical binding method that uses a cuvette to which TSP-1 is covalently coupled. A laser beam was used to detect whether the test protein (fragments, angiocidin, or GST) is bound to the TSP-1 derivatized cuvette surface. The cuvette was derivatized with 1 μg of TSP-1. The cuvette surfaces were blocked with a 1% BSA solution to prevent nonspecific binding. The test proteins were added at a concentration of […] in a PBS buffer.

Chain of TSP-1 (P07996 19-1170): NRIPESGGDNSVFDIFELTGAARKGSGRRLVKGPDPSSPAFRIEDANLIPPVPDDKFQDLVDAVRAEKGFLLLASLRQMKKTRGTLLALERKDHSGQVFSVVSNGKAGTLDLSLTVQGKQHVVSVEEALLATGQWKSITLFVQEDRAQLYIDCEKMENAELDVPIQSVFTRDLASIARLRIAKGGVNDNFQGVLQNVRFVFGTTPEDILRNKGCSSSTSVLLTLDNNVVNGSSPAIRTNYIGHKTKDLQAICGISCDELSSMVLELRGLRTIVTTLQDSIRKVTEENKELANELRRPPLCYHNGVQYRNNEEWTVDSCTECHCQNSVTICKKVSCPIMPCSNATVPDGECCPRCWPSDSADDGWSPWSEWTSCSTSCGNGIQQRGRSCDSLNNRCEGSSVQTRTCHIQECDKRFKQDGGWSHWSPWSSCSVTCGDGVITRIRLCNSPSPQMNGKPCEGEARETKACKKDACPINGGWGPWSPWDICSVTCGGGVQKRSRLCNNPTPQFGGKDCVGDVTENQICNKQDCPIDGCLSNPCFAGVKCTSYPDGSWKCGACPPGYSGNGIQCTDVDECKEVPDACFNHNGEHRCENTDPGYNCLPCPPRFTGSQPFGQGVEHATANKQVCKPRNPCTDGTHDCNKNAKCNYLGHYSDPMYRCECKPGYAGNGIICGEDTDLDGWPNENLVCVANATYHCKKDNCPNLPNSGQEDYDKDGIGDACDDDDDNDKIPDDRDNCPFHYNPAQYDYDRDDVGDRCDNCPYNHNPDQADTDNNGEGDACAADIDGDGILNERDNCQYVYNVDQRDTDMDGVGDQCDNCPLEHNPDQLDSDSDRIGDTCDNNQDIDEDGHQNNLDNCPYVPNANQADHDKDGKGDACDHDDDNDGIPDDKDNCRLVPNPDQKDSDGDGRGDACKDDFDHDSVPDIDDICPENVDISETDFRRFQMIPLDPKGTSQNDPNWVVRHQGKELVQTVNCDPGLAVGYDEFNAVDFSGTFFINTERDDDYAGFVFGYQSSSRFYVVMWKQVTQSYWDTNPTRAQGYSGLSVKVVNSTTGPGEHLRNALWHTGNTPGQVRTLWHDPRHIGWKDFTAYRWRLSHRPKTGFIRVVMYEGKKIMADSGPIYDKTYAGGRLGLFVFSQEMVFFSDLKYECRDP

B1: amino terminal fragment Met1-Lys132: amino terminal fragment Met1-Lys132 of angiocidin (SEQ ID NO: 24) (protein, listed as Homo sapiens)
chain: MVLESTMVCVDNSEYMRNGDFLPTRLQAQQDAVNIVCHSKTRSNPENNVGLITLANDCEVLTTLTPDTGRILSKLHTVQPKGKITFCTGIRVAHLALKHRQGKNHKMRIIAFVGSPVEDNEKDLVKLAKRLK
In the case of B1, the “anti-endothelial activity compared to angiocidin” value in test [1] (37 μg/ml, overnight) is listed as “has the same anti-endothelial activity as the full length angiocidin”. The “cell viability, angiocidin and fragments” value in test [1] (Example 27, FIG. 34) is recorded as “inhibited cell viability”. Further, in test [2], the “binding to TSP-1 derivatized cuvette” value is “show very similar binding at the nano molar range”.
